# Experimental data reported in the supplement of paper PMC11246515.
# ± gives the standard deviation of the averaged measurements.
# Experiment: total protein half-life in vivo (active degradation + dilution); higher = more stable protein
# [1] = E. coli NCM3722 delta-clpP delta-lon delta-hslV, growth: N-lim chemostat, doubling time 6 h
# [2] = E. coli NCM3722 delta-clpP, growth: N-lim chemostat, doubling time 6 h
# [3] = E. coli NCM3722 delta-hslV, growth: N-lim chemostat, doubling time 6 h
# [4] = E. coli NCM3722 delta-lon, growth: N-lim chemostat, doubling time 6 h
# [5] = E. coli NCM3722 delta-smpB, growth: N-lim chemostat, doubling time 6 h
# [6] = wild type E. coli NCM3722, growth: C-lim chemostat, doubling time 3 h
# [7] = wild type E. coli NCM3722, growth: C-lim chemostat, doubling time 6 h
# [8] = wild type E. coli NCM3722, growth: C-lim chemostat, doubling time 12 h
# [9] = wild type E. coli NCM3722, growth: N-lim chemostat, doubling time 6 h
# [10] = wild type E. coli NCM3722, growth: N-lim chemostat, doubling time 12 h
# [11] = wild type E. coli NCM3722, growth: P-lim chemostat, doubling time 6 h
# [12] = wild type E. coli NCM3722, growth: P-lim chemostat, doubling time 12 h
Sequence,total protein half-life in vivo [1] [h],total protein half-life in vivo [2] [h],total protein half-life in vivo [3] [h],total protein half-life in vivo [4] [h],total protein half-life in vivo [5] [h],total protein half-life in vivo [6] [h],total protein half-life in vivo [7] [h],total protein half-life in vivo [8] [h],total protein half-life in vivo [9] [h],total protein half-life in vivo [10] [h],total protein half-life in vivo [11] [h],total protein half-life in vivo [12] [h]
MSTLEQTIGNTPLVKLQRMGPDNGSEVWLKLEGNNPAGSVKDRAALSMIVEAEKRGEIKPGDVLIEATSGNTGIALAMIAALKGYRMKLLMPDNMSQERRAAMRAYGAELILVTKEQGMEGARDLALEMANRGEGKLLDQFNNPDNPYAHYTTTGPEIWQQTGGRITHFVSSMGTTGTITGVSRFMREQSKPVTIVGLQPEEGSSIPGIRRWPTEYLPGIFNASLVDEVLDIHQRDAENTMRELAVREGIFCGVSSGGAVAGALRVAKANPDAVVVAIICDRGDRYLSTGVFGEEHFSQGAGI,6.17 ± 1.7,4.5 ± 0.098,4.55 ± 0.61,4.81 ± 0.087,4.19 ± 0.058,2.95 ± 0.34,6.01 ± 0.21,10.2 ± 0.28,4.66 ± 0.086,7.44 ± 0.39,5.64 ± 0.13,11.6 ± 0.56
MSTPDFSTAENNQELANEVSCLKAMLTLMLQAMGQADAGRVMLKMEKQLALIEDETQAAVFSKTVKQIKQAYRQ [P0AD07],–,–,–,–,–,–,–,–,–,–,–,7.56 ± 2.9
MSTPLQGIKVLDFTGVQSGPSCTQMLAWFGADVIKIERPGVGDVTRHQLRDIPDIDALYFTMLNSNKRSIELNTKTAEGKEVMEKLIREADILVENFHPGAIDHMGFTWEHIQEINPRLIFGSIKGFDECSPYVNVKAYENVAQAAGGAASTTGFWDGPPLVSAAALGDSNTGMHLLIGLLAALLHREKTGRGQRVTMSMQDAVLNLCRVKLRDQQRLDKLGYLEEYPQYPNGTFGDAVPRGGNAGGGGQPGWILKCKGWETDPNAYIYFTIQEQNWENTCKAIGKPEWITDPAYSTAHARQPHIFDIFAEIEKYTVTIDKHEAVAYLTQFDIPCAPVLSMKEISLDPSLRQSGSVVEVEQPLRGKYLTVGCPMKFSAFTPDIKAAPLLGEHTAAVLQELGYSDDEIAAMKQNHAI,–,–,–,–,–,–,–,–,–,–,5.48,–
MSTPRQILAAIFDMDGLLIDSEPLWDRAELDVMASLGVDISRRNELPDTLGLRIDMVVDLWYARQPWNGPSRQEVVERVIARAISLVEETRPLLPGVREAVALCKEQGLLVGLASASPLHMLEKVLTMFDLRDSFDALASAEKLPYSKPHPQVYLDCAAKLGVDPLTCVALEDSVNGMIASKAARMRSIVVPAPEAQNDPRFVLADVKLSSLTELTAKDLLG,4.76 ± 0.9,5.14 ± 0.84,4.544 ± 0.045,5.444 ± 0.011,4.27 ± 0.18,2.99 ± 0.3,5.48 ± 0.35,12.1 ± 3,4.47 ± 0.14,8.91 ± 1.3,5.65 ± 0.52,12.3 ± 0.28
MSTQLDPTQLAIEFLRRDQSNLSPAQYLKRLKQLELEFADLLTLSSAELKEEIYFAWRLGVH,5.63 ± 0.47,3.08 ± 0.39,–,2.3,1.29,–,–,1.9,0.632,1.08,–,0.514
MSTQYETQGYTINNAGRRLVVDPITRIEGHMRCEVNINDQNVITNAVSCGTMFRGLEIILQGRDPRDAWAFVERICGVCTGVHALASVYAIEDAIGIKVPDNANIIRNIMLATLWCHDHLVHFYQLAGMDWIDVLDALKADPRKTSELAQSLSSWPKSSPGYFFDVQNRLKKFVEGGQLGIFRNGYWGHPQYKLPPEANLMGFAHYLEALDFQREIVKIHAVFGGKNPHPNWIVGGMPCAINIDESGAVGAVNMERLNLVQSIITRTADFINNVMIPDALAIGQFNKPWSEIGTGLSDKCVLSYGAFPDIANDFGEKSLLMPGGAVINGDFNNVLPVDLVDPQQVQEFVDHAWYRYPNDQVGRHPFDGITDPWYNPGDVKGSDTNIQQLNEQERYSWIKAPRWRGNAMEVGPLARTLIAYHKGDAATVESVDRMMSALNLPLSGIQSTLGRILCRAHEAQWAAGKLQYFFDKLMTNLKNGNLATASTEKWEPATWPTECRGVGFTEAPRGALGHWAAIRDGKIDLYQCVVPTTWNASPRDPKGQIGAYEAALMNTKMAIPEQPLEILRTLHSFDPCLACSTHVLGDDGSELISVQVR [P0ACD8],4.51 ± 0.84,–,–,–,–,–,–,–,–,–,–,–
MSTTHNVPQGDLVLRTLAMPADTNANGDIFGGWLMSQMDIGGAILAKEIAHGRVVTVRVEGMTFLRPVAVGDVVCCYARCVQKGTTSVSINIEVWVKKVASEPIGQRYKATEALFKYVAVDPEGKPRALPVE [P0A8Z0],5.03 ± 0.4,5.16 ± 0.9,5.24 ± 0.38,5.86 ± 0.43,5 ± 0.31,2.93 ± 0.13,5.72 ± 0.64,11.1 ± 0.23,5.6 ± 0.096,10.1 ± 0.37,5.8 ± 0.5,13.3 ± 0.14
MSTVTITDLARENVRNLTPYQSARRLGGNGDVWLNANEYPTAVEFQLTQQTLNRYPECQPKAVIENYAQYAGVKPEQVLVSRGADEGIELLIRAFCEPGKDAILYCPPTYGMYSVSAETIGVECRTVPTLDNWQLDLQGISDKLDGVKVVYVCSPNNPTGQLINPQDFRTLLELTRGKAIVVADEAYIEFCPQASLAGWLAEYPHLAILRTLSKAFALAGLRCGFTLANEEVINLLMKVIAPYPLSTPVADIAAQALSPQGIVAMRERVAQIIAEREYLIAALKEIPCVEQVFDSETNYILARFKASSAVFKSLWDQGIILRDQNKQPSLSGCLRITVGTREESQRVIDALRAEQV,3.92 ± 0.55,3.15 ± 0.066,3.41 ± 0.045,3.73 ± 0.54,3.535 ± 0.032,3.02 ± 0.27,5.38 ± 0.12,9.87 ± 1.3,3.247 ± 0.012,4.98 ± 0.15,5.32 ± 0.39,10.9 ± 0.23
MSVENIVNINESNLQQVLEQSMTTPVLFYFWSERSQHCLQLTPILESLAAQYNGQFILAKLDCDAEQMIAAQFGLRAIPTVYLFQNGQPVDGFQGPQPEEAIRALLDKVLPREEELKAQQAMQLMQESNYTDALPLLKDAWQLSNQNGEIGLLLAETLIALNRSEDAEAVLKTIPLQDQDTRYQGLVAQIELLKQAADTPEIQQLQQQVAENPEDAALATQLALQLHQVGRNEEALELLFGHLRKDLTAADGQTRKTFQEILAALGTGDALASKYRRQLYALLY,4.51 ± 0.3,4.61 ± 0.092,5.26 ± 0.61,6.044 ± 0.054,4.75 ± 0.35,3.1 ± 0.24,6.038 ± 0.01,11 ± 0.52,5.25 ± 0.16,8.64 ± 0.25,5.31 ± 0.12,11.9 ± 0.69
